From article PMC13061415, “A structural code for assembly specificity in GID/CTLH-type E3 ligases” (eLife, 2026) come the findings set out here.

B1: Maea CTLH-CRA domain (156-279) (domain or fragment, mouse, UniProt Q4VC33 156-279, looked up)
chain: NIEMFLTAKEVEESLERRETATCLAWCHDNKSRLRKMKSCLEFSLRIQEFIELVRQNKRLDAVRHARKHFSQAEGSQLDEVRQVMGMLAFPPDTHISPYKDLLDPARWRMLIQQFRYDNYRLHQ
notes: Maea, mouse, residues 156-279; In solution between a dimer and a tetramer (dimer of dimers), depending on concentration; source: E. coli BL21 CodonPlus (DE3) RIL, purified (Ni-IDA, 3C cleavage, SEC); also co-expressed with Twa1 (1–228); not shown: His6, N-terminal, cleaved
B2: Maea CTLH-CRA domain double mutant (Y272A, Y275A) (domain or fragment, mouse, UniProt Q4VC33 156-279, looked up)
chain: B1 chain with Y117A, Y120A
notes: Maea, mouse, CTLH-CRA domain; also called Maea double mutant; source: E. coli BL21 CodonPlus (DE3) RIL, purified (Ni-IDA, 3C cleavage, SEC); not shown: His6, N-terminal, cleaved
B3: muskelin CTLH-CRA domain, C-terminally shortened (205–719, Δ248–624) (domain or fragment, rat, UniProt Q99PV3 205-719, looked up)
chain: EHPMLTDMHDKLVLKGDFDACEELIEKAVNDGLFNQYISQQEYRPSKDYLLRHCKYLIRKHRFEEKAQMDPLSALKYLQNDLYITVDHSDPEETKEFQLLASALFKSGSDFTALGFSDVDHTYAQRTQLFDTLVNFFP
notes: muskelin, rat, residues 205-719 with 248-624 deleted; Insoluble on its own; soluble only when co-expressed with RanBP9/10 CTLH-CRA domains; also called muskelin (shortened C-terminus); Mkln; not shown: His6, N-terminal, cleaved
B4: Rmnd5a CTLH-CRA domain (147-275) (domain or fragment, mouse, UniProt Q80YQ8 147-275, looked up)
chain: DPSQKEPFVELNRILEALKVRVLRPALEWAVSNREMLIAQNSSLEFKLHRLYFISLLMGGTTNQREALQYAKNFQPFALNHQKDIQVLMGSLVYLRQGIENSPYVHLLDANQWADICDIFTRDACALLG
notes: Rmnd5a, mouse, residues 147-275; Could not be purified on its own; soluble when co-expressed with Twa1; source: E. coli BL21 CodonPlus (DE3) RIL, co-expressed with Twa1 (1–228), complex purified (Ni-IDA, 3C cleavage, SEC); not shown: His6, N-terminal, cleaved
B5: muskelin (1–735) (natural protein, rat, UniProt Q99PV3 1-735, looked up)
chain: MAAGGAVAAAPECRLLPYALHKWSSFSSTYLPENILVDKPNDQSSRWSSESNYPPQYLILKLERPAIVQNITFGKYEKTHVCNLKKFKVFGGMNEENMTELLSSGLKNDYNKETFTLKHKIDEQMFPCRFIKIVPLLSWGPSFNFSIWYVELSGIDDPDIVQPCLNWYSKYREQEAIRLCLKHFRQHNYTEAFESLQKKTKIALEHPMLTDMHDKLVLKGDFDACEELIEKAVNDGLFNQYISQQEYKPRWSQIIPKSTKGDGEDNRPGMRGGHQMVIDVQTETVYLFGGWDGTQDLADFWAYSVKENQWTCISRDTEKENGPSARSCHKMCIDIQRRQIYTLGRYLDSSVRNSKSLKSDFYRYDIDTNTWMLLSEDTAADGGPKLVFDHQMCMDSEKHMIYTFGGRILTCNGSVDDSRASEPQFSGLFAFNCQCQTWKLLREDSCNAGPEDIQSRIGHCMLFHSKNRCLYVFGGQRSKTYLNDFFSYDVDSDHVDIISDGTKKDSGMVPMTGFTQRATIDPELNEIHVLSGLSKDKEKREENVRNSFWIYDIVRNSWSCVYKNDQAAKENLSKSLQEEEPCPRFAHQLVYDELHKVHYLFGGNPGKSCSPKMRLDDFWSLKLCRPSKDYLLRHCKYLIRKHRFEEKAQMDPLSALKYLQNDLYITVDHSDPEETKEFQLLASALFKSGSDFTALGFSDVDHTYAQRTQLFDTLVNFFPDSMTPPKGNLVDLITL
notes: muskelin, rat, residues 1-735; also called full-length muskelin; tetrameric muskelin; source: E. coli BL21 CodonPlus (DE3) RIL, purified as described previously (van gen Hassend et al., 2023)
B6: Wdr26 (102–641) (domain or fragment, mouse, UniProt Q8C6G8 102-641, looked up)
chain: QSDEDVIRLIGQHLNGLGLNQTVDLLMQESGCRLEHPSATKFRNHVMEGDWDKAENDLNELKPLVHSPHAIVVRGALEISQTLLGIIVRMKFLLLQQKYLEYLEDGKVLEALQVLRCELTPLKYNTERIHVLSGYLMCSHAEDLRAKAEWEGKGTASRSKLLDKLQTYLPPSVMLPPRRLQTLLRQAVELQRDRCLYHNTKLDNNLDSVSLLIDHVCSRRQFPCYTQQILTEHCNEVWFCKFSNDGTKLATGSKDTTVIIWQVDPDTHLLKLLKTLEGHAYGVSYIAWSPDDSYLVACGPDDCSELWLWNVQTGELRTKMSQSHEDSLTSVAWNPDGKRFVTGGQRGQFYQCDLDGNLLDSWEGVRVQCLWCLSDGKTVLASDTHQRVRGYNFEDLTDRNIVQEDHPIMSFTISKNGRLALLNVATQGVHLWDLQDRVLVRKYQGVTQGFYTIHSCFGGHNEDFIASGSEDHKVYIWHKRSELPIAELTGHTRTVNCVSWNPQIPSMMASASDDGTVRIWGPAPFIDHQNIEEECSSMDS
notes: Wdr26, mouse, residues 102-641; also called dimeric Wdr26; (near) full-length Wdr26; source: E. coli BL21 CodonPlus (DE3) RIL, purified as described previously (van gen Hassend et al., 2023)
B7: Twa1_14 mutant (A125G, Q126R, ΔT127, Q128E, A130Q, M143L, E144Q, L147F, A148S, F152Y, F160V; 58–190), CTLH-CRA domain (domain or fragment, mouse, UniProt Q9D7M1 58-190, looked up)
chain: SVDLETLDERIKIREMILKGQIQEAIALINSLHPELLDTNRYLYFHLQQQHLIELIRQRETEAALEFGRELQEQGEESRECLTELQRTFSLLAYDSPEESPVGDLLHMMQRQKVWSEVNQAVLDYENRESTP
notes: Twa1, mouse, CTLH-CRA domain 58-190 with eleven RanBP10-like changes; also called Twa_14; source: E. coli BL21 CodonPlus (DE3) RIL, purified (Ni-IDA, 3C cleavage, SEC); not shown: His6, N-terminal, cleaved
B8: muskelin CTLH-CRA domain (205–735 Δ248–625) (domain or fragment, rat, UniProt Q99PV3 205-735, looked up)
chain: EHPMLTDMHDKLVLKGDFDACEELIEKAVNDGLFNQYISQQEYPSKDYLLRHCKYLIRKHRFEEKAQMDPLSALKYLQNDLYITVDHSDPEETKEFQLLASALFKSGSDFTALGFSDVDHTYAQRTQLFDTLVNFFPDSMTPPKGNLVDLITL
notes: muskelin, rat, fusion of the CTLH motif and the C-terminus (CRA^N-like): residues 205-735 with 248-625 deleted; also called muskelin wt; CTLH-Ct construct; source: E. coli BL21 CodonPlus (DE3) RIL, purified as described previously (van gen Hassend et al., 2023)

The target in data set [1] is T1, Twa1 (1–228) (mouse, UniProt Q9D7M1 1-228).
T1 construct: Twa1, mouse, residues 1-228; A homodimer on its own (SEC-MALS); one copy pairs with RanBP10 in the heterodimer of PDB 9SOC; also called full-length dimeric Twa1; source: E. coli BL21 CodonPlus (DE3) RIL, purified as described previously (van gen Hassend et al., 2023)
As to the kind of experiment: SEC-MALS; Superdex 200 10/300 GL; Twa1 (1–228) alone, co-expressed Twa1-Rmnd5a (CTLH-CRA) and Twa1-Maea (CTLH-CRA) complexes, Maea double mutant (Y272A, Y275A). To be noted: both partners purified.

Data set [2] deals with T2, Twa1_10 mutant (A130Q, L147F, F152Y, F160V), CTLH-CRA domain (mouse, UniProt Q9D7M1 58-190, A130Q | L147F | F152Y | F160V).
T2 construct: Twa1, mouse, CTLH-CRA domain 58-190 with four RanBP10-like substitutions; source: E. coli BL21 CodonPlus (DE3) RIL, purified (Ni-IDA, 3C cleavage, SEC); not shown: His6, N-terminal, cleaved
Kind of data set: native gel or EMSA; native agarose gel electrophoresis (NAGE): CTLH-CRA domains at 200 μM incubated with the partner at least 30 min at room temperature; 0.8% agarose, 25 mM Tris, 200 mM glycine, 4°C; Coomassie. Conditions: both partners purified.

In data set [3] the target is B7. The data set is described as above. Conditions: both partners purified.
Data set [4] deals with the molecule itself. Kind of data set: SEC-MALS; Maea CTLH-CRA dilution series, Superdex 200 10/300 GL; molar masses of 0.3 ml peak fractions against concentration, one-site binding fit; the constant is of the step tetramer (dimer of dimers) to dimers.
Data set [5] concerns the molecule itself. As to the kind of experiment: SEC-MALS; Superdex 200 10/300 GL; Twa1 (1–228) alone, co-expressed Twa1-Rmnd5a (CTLH-CRA) and Twa1-Maea (CTLH-CRA) complexes, Maea double mutant (Y272A, Y275A).
The target of data set [6] is T3, RanBP9 CTLH-CRA domain (324–614, Δ391–534) (mouse, UniProt P69566 324-614, Δ391–534).
T3 construct: RanBP9, mouse, fusion of CTLH and CRA^N: residues 324-614 with the linker 391-534 deleted (without the CRA^C segment); A longer construct with the CRA^C segment (324–638, Δ391–534) was crystallised alone (PDB 9SNE); also called R9
As to the kind of experiment: SEC-MALS; CTLH-CRA domain complexes co-expressed in E. coli and purified as complexes; Superdex 75 10/300 GL; 20 mM tricine pH 8.0, 500 mM NaCl, 1 mM TCEP. To be noted: both partners purified.

Data set [7] deals with the molecule itself. As to the kind of experiment: SEC-MALS; ITC-assembled samples: excess RanBP9-Twa1 added to pre-assembled Twa1_52-muskelin or Twa1_52-Wdr26; Superose 6 10/300 GL.
The target of data set [8] is T4, RanBP9 (69–653)-Twa1 (1–228) complex (mouse, UniProt P69566 69-653; Q9D7M1 1-228).
T4 construct: RanBP9, mouse, residues 69-653; Twa1, mouse, residues 1-228; In the text on the KD values the complex is called simply RanBP9; also called RanBP9-Twa1; source: E. coli BL21 CodonPlus (DE3) RIL, complex purified as described previously (van gen Hassend et al., 2023)
As to the kind of experiment: ITC; competition: RanBP9-Twa1 or RanBP10-Twa1 complex (160 μM) titrated into pre-formed Twa1_52-muskelin or Twa1_52-Wdr26 complex (16 μM); 25°C; competitive binding model with the parameters of the first titration. Conditions: both partners purified.

Data set [9] has as its target B8. As to the kind of experiment: ITC; muskelin CTLH-CRA (160 μM, syringe) titrated into RanBP10 or Twa1 CTLH-CRA variants (16 μM, cell); 25°C; 20 mM tricine pH 8.0, 500 mM NaCl, 1 mM TCEP; one-site model. To be noted: both partners purified.
In data set [10] the target is T5, Twa1_52 mutant (A125G, Q126R, Δ127T, L140K, E144K, L147F, F152Y, F160V), CTLH-CRA domain (mouse, UniProt Q9D7M1 58-190, A125G | Q126R | Δ127T | L140K | E144K | L147F | F152Y | F160V).
T5 construct: Twa1, mouse, CTLH-CRA domain 58-190 with eight changes; source: E. coli BL21 CodonPlus (DE3) RIL, purified (Ni-IDA, 3C cleavage, SEC); also tagless, co-expressed with muskelin or Wdr26 CTLH-CRA domain; not shown: His6, N-terminal, cleaved
Kind of data set: SEC-MALS; purified CTLH-CRA domains alone or mixed (RanBP10 and Twa1 variants with Maea or muskelin), final concentration 250 μM, Superdex 75 10/300 GL. Conditions: both partners purified.

Substitutions are numbered along the chain they refer to. Names and notes keep the numbering of the source. Values joined by “and” are separate entries in the source; they are usually repeats but may differ in a detail not shown here. Equal entries are not always repeated.

T1 sequence (Q9D7M1 whole entry, the tested form may be a part): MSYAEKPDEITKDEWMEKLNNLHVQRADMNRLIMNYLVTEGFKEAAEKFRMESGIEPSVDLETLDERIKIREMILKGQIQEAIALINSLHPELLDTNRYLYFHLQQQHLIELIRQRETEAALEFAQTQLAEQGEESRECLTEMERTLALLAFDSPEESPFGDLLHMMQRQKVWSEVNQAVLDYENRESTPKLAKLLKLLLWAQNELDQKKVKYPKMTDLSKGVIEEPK
T4 sequence (P69566 69-653, chain 1 of 2): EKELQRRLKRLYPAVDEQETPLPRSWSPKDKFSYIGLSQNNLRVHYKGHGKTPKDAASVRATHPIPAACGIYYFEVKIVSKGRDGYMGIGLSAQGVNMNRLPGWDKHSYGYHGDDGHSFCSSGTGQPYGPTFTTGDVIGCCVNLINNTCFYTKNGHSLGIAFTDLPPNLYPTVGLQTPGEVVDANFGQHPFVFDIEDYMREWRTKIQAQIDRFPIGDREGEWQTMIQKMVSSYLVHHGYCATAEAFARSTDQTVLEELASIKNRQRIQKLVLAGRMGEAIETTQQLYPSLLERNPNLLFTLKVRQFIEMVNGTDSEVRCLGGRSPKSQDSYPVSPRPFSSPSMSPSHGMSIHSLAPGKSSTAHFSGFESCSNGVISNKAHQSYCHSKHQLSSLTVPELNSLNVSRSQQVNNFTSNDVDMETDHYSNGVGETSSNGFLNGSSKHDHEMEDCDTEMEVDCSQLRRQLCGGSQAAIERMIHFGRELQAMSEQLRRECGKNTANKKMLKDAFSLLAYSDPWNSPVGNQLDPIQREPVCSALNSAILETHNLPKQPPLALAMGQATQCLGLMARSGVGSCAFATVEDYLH
T4 sequence (Q9D7M1 whole entry, chain 2 of 2, the tested form may be a part): as the sequence (Q9D7M1 whole entry, the tested form may be a part) above
T3 sequence (P69566 other isoform, or with tags, fused parts or gaps Δ391–534 | Δ391–534 | mutant): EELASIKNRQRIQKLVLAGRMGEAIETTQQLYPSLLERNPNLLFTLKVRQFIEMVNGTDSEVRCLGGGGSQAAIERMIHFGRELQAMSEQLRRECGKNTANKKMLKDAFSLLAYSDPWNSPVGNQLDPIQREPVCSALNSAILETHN

As to B1, the “stoichiometry N” value in data set [1] is 1; in data set [4] it was 2 and 4. Moreover, the binding result in data set [2] and in data set [3] was “binds” in each case. Also, the dissociation constant (Kd) in [4] was ~5000 nM.

Turning to B2, the “stoichiometry N” value in data set [5] stood at 2.

Turning to B3, the “stoichiometry N” value in data set [6] was 1.

In the case of B4, in data set [1], the “stoichiometry N” value was 1.

Consider B5, for which the “stoichiometry N” value in [7] was 4. In data set [8], this molecule returned a dissociation constant Kd of 0.0795 nM.

On to B6, for which, in [7], the “stoichiometry N” value is 2. Further, binding in data set [8] was put at a Kd of 0.412 nM.

On to B7, for which the affinity in [9], expressed as Kd, was 192 nM. This counts as sub-micromolar.

On to B8, for which, in data set [10], the “stoichiometry N” value was 1.
